Laboratory results as given in patent US12533399B2, “Composition comprising tTF-NGR for use in treating soft-tissue sarcoma” (ANTUREC PHARMACEUTICALS GMBH, priority 2020, dated 2026).

B1: tTF-NGR: fusion protein of truncated tissue factor (tTF) with C-terminal NGR targeting peptide binding CD13 and N-terminal His-tag, SEQ ID NO: 2 (protein)
chain: MHHHHHHSSGLVPRGSGMKETAAAKFERQHMDSPDLGTDDDDKAMGSGTTNTVAAYNLTWKSTNFKTILEWEPKPVNQVYTVQISTKSGDWKSKCFYTTDTECDLTDEIVKDVKQTYLARVFSYPAGNVESTGSAGEPLYENSPEFTPYLETNLGQPTIQSFEQVGTKVNVTVEDERTLVRRNNTFLSLRDVFGKDLIYTLYYWKSSSSGKKTAKTNTNEFLIDVDKGENYCFSVQAVIPSRTVNRKSTDSPVECMGQEKGEFRGNGRAHA
modifications: His-tTF-NGR fusion protein

Assays:
HUVEC = experiment: PS upregulation on HUVEC cell membranes, flow cytometry with annexin V-FITC; type: cell-based, human
Protocol: FIG. 4: illustration of the synergistic activity of tTF-NGR and Trabectedin in human vascular endothelial cells (HUVEC). […] PS is detected by the fluorescent PS-binding annexin V-FITC.
This effect is specifically dependent on the presence of PS as it can be completely abolished by masking PS via preincubation with annexin V.

[1] = system: HT1080 human sarcoma cells; experiment: PS upregulation on HT1080 sarcoma cells; type: cell-based; conditions: Trabectedin 10 nM, 8 h; 6 experiments; p=0.001 vs non-Trabectedin control
Protocol: FIG. 5: illustration of the synergistic activity of tTF-NGR and Trabectedin in HT1080 human sarcoma cells. […] Means+standard error (p value=0.001). Propidiumiodide was used as an internal necrosis control. […] Means of 4 experiments+standard error and p-values.
As in tumor tissues part of the inner vascular cell layer of the neovasculature is not formed by endothelial cells, but also by tumor cells, which is termed “vascular mimicry”, analog experiments were also performed with HT1080 human sarcoma cells instead of HUVECs (see FIG. 5).

tumor = experiment: Intravascular contrast enhanced MRI of the tumor after tTF-NGR (FIG. 3); type: in vivo; conditions: few hours after tTF-NGR application
Text: FIG. 3: illustration of the therapeutic activity and modes of action of tTF-NGR by different imaging techniques. 1. Bluish coloration of the tumor (A, left: tTF-NGR. A, right: vehicle control) few hours after injection of tTF-NGR macroscopically visualizing blood pooling and vascular disruption. 2. Intravascular contrast enhanced Magnetic Resonance Imaging (MRI) of the tumor showing anatomy of the tumors (A, B) and drastic decrease of blood flow from high blood flow (C) to low (D) few hours after tTF-NGR application. The vascular volume fraction was quantified to decrease>1 log. 3. H&E staining of sarcoma xenograft tissue (A, thrombosis, blood pooling and vascular disruption after tTF-NGR; B, saline control with normal vasculature). 4. In vivo fluorescence reflectance imaging showing the vascular anatomy by intravascular fluorescent fibrin after tTF-NGR (B). A, before tTF-NGR; B, 1 hour after tTF-NGR; C, vascular disruption 24 hours after tTF-NGR.

[2] = Toxicity evaluation according to EU-guidelines S6 and S9; type: in vivo; conditions: most sensitive species (mouse)
Text: tTF-NGR was produced using E. coli via a clinical-grade production process and a 4-step HPLC purification. The production process and the GMP facility are approved by the regional government (Manufacturer's Authorisation by Regierungspräsidium) and the federal Paul Ehrlich-Institute (PEI). Toxicity evaluation according to EU-guidelines S6 and S9 in mouse, rat, guinea pigs, and dogs has been completed.

[3] = system: late stage solid tumor and lymphoma patients; experiment: Clinical phase I study of tTF-NGR: DLT, safety, response; type: in vivo, human
Protocol: (§1) A clinical phase I trial was performed (EudraCT-No.: 2016-003042-85; NCT02902237) with tTF-NGR applied as 1-hour infusion solved in 0.9% NaCl via a central venous line in late stage cancer patients. This trial was a first-in-class trial, which was guided by repeated contrast-enhanced ultrasound (CEUS) and MRI to assess for blood flow decrease in tumor signal lesions. A “5-day q day 22” schedule was used in the study design.
This sensitive laboratory DLT was fast reversible and allows early monitoring for subsequent dose adjustment in future trials. […] Thus, the trial was completed with a recommended dose for phase II (RPIID) at 3 mg/m^2/day×5, q d 22. The investigational medicinal product (IMP) is given via a PORT central venous access in 100 mL 0.9% NaCl over a rate-controlled infusion with a 1-hour duration.
(§2) The tumor blood flow inhibition was up to >1-log-step. […] In none of the patients treated so far a CR or a PR could be observed.

[4] = Clinical phase I study of tTF-NGR: pharmacokinetics; type: in vivo, human; conditions: patients
Protocol: as §1

[5] = system: tumor blood flow (intratumoral blood circulation); experiment: Clinical phase I study of tTF-NGR: tumor blood flow by CEUS and MRI; type: in vivo, human; conditions: patients
Protocol: as §1, §2

CD13 = target: T1, CD13 (Homo sapiens, UniProt P15144); experiment: Binding of tTF-NGR to its target on growing endothelial cells; type: cell-based
T1 construct: endogenous in cells; host or cells: growing / stimulated endothelial cells (EC)
T1 sequence (P15144 whole entry): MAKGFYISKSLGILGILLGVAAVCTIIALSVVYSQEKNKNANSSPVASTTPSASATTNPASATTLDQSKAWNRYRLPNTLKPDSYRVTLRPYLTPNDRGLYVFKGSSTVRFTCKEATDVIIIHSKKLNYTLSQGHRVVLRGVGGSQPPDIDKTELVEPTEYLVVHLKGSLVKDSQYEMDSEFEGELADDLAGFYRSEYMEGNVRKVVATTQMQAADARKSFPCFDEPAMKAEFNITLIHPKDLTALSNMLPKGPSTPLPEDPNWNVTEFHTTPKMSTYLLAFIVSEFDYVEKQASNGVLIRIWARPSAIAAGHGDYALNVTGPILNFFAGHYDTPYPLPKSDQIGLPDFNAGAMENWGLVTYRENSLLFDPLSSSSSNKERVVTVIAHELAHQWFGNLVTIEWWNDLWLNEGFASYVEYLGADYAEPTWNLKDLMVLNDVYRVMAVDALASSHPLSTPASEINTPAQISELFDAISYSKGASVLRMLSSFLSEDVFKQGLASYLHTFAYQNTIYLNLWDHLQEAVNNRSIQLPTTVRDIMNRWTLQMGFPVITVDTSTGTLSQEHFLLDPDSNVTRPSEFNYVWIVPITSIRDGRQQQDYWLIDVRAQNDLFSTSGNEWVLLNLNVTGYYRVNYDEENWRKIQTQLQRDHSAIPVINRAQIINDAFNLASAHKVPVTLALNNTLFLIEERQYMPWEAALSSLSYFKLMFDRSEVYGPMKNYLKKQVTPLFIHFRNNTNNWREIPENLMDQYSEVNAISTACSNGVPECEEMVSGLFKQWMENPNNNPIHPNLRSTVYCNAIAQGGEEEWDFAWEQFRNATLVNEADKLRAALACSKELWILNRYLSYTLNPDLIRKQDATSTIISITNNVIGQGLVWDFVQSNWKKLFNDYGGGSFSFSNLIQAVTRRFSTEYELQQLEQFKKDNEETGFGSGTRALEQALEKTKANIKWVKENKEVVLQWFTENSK
Protocol: (§3) These fusion proteins were tested in vitro and in vivo for essential therapeutic properties, such as pro-coagulatory activity, specific binding to their respective target molecules on stimulated endothelial cells (EC) or pericytes, in vivo intratumoral accumulation, in vivo intratumoral activation of coagulation, tumor vascular occlusion and inhibition of blood flow, pharmacodynamic properties including therapeutic antitumor activity in xenotransplants of human tumors from different histologic origin, and finally rodent as well as non-rodent animal safety and toxicology. […] Preclinical therapeutic activity of tTF-NGR was independent of tumor histology (e.g. melanoma, lung, breast, sarcoma, glioblastoma).

[6] = system: xenotransplants of human tumors; experiment: Preclinical therapeutic activity in xenotransplants of human tumors; type: in vivo
Protocol: as §3

Molecule | PS-positive cells (lower right quadrant) (HUVEC; Trabectedin 15 nM, 8 h incubation, 7.21% without Trabectedin, one example experiment) | PS upregulation on HUVECs (HUVEC; increasing doses, after 8 and 12 h, 7 experiments, P<0.0001 vs non-Trabectedin control) | PS upregulation on HT1080 sarcoma cells [1] | decrease of vascular volume fraction (tumor) | limiting toxicity [2] | adverse event ([3]; at 3 mg/m^2, CTCAE II resolved, patient with angiosarcoma in left atrium) | kind of dose-limiting toxicity ([3]; at 4 mg/m^2/day, fast reversible, no clinical sequelae) | adverse event ([3]; at 4 mg/m^2, CTCAE grade II and resolved) | adverse event ([3]; at 5 mg/m^2, 1 patient, completely resolved) | dose limiting toxicity (DLT) dose ([3]; daily 1-hour iv infusions for 5 days, q day 22) | patients with CR or PR ([3]; patients treated so far) | human anti-fusion protein antibodies (HAFA) ([3]; without clinical symptoms or neutralizing capacity) | recommended dose for phase II (RPIID) ([3]; x5, q d 22) | accumulation with repeated cycles [4] | mean terminal half life ([4]; 1-hour iv infusion) | blood flow in normal organs [5] | tumor blood flow inhibition ([5]; up to) | binding to CD13 on growing EC (CD13) | effect on tumor growth ([6]; independent of tumor histology (melanoma, lung, breast, sarcoma, glioblastoma)) | resistance development ([6]; repeated rounds of treatment)
COc1cc2c(cc1O)CCN[C@]21CS[C@@H]2c3c(OC(C)=O)c(C)c4c(c3[C@H](COC1=O)N1[C@@H]2[C@H]2c3c(cc(C)c(OC)c3O)C[C@@H]([C@@H]1O)N2C)OCO4 [Trabectedin] | 29.22% | PS upregulation | significant PS upregulation | – | – | – | – | – | – | – | – | – | – | – | – | – | – | – | – | –
B1 | – | – | – | > 1 log | pulmonary embolism | transient ischemic attack | temporary troponin T hs showed increase | central venous catheter-related venous thrombosis | CTCAE grade II lower limb deep vein thrombosis | 5 mg/m^2 per day | none | detected in few patients | 3 mg/m^2/day | no accumulation | 8.99 h | without blood flow decrease in normal organs | > 1 log-step | specifically binds to CD13 | tumor growth inhibition and regression | no resistance development
